This is an account of results in PMC10157364 (Molecular Cancer Therapeutics, 2023).

Assay [1] has as its target T1, mouse MIF treated with 0.2% Proclin300 (oxMIF surrogate) (Mus musculus, UniProt P34884, treated with 0.2% Proclin300 to transform MIF into an oxMIF surrogate).
T1 construct: mouse MIF; also called mouse oxMIF in solution; soluble mouse oxMIF; source: E. coli SHuffle T7 Express lysY, purified (DEAE flow-through, SP cation exchange, SEC or desalting)
Put plainly: ELISA; quantitative oxMIF ELISA: 15 nmol/L C0008, ON103 or ON203 as capture antibodies; human or mouse MIF in buffers with 0.2% Proclin300 as standard curves; EC50. The note with it: both partners purified.

Assay [2] deals with T2, human MIF treated with 0.2% Proclin300 (oxMIF surrogate) (Homo sapiens, UniProt P14174, treated with 0.2% Proclin300 to transform MIF into an oxMIF surrogate).
T2 construct: human MIF; Same protein as m4, after treatment with Proclin300 (3 hours at room temperature for SPR); also called human oxMIF in solution; soluble human oxMIF; source: E. coli SHuffle T7 Express lysY, purified (DEAE flow-through, SP cation exchange, SEC or desalting)
Put plainly: SPR; Biacore 3000; antibodies amine-coupled to CM5 chips (about 2,500; 1,500; 1,000 RU); MIF at 42-666 nmol/L in HBS-EP with 0.2% Proclin300 (3 hours, room temperature), 30 uL/minute; Langmuir 1:1 model with mass transfer; mean of flow cells 2-4. The conditions noted are these: both partners purified.

T2 sequence (P14174 whole entry): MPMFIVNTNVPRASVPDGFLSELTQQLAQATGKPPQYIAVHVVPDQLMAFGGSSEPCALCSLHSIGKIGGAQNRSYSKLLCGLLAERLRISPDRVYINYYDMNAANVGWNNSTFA

B1: C0008 (antibody, V domains shown)
VH: EVQLLESGGGLVQPGGSLRLSCAASGFTFSIYSMNWVRQAPGKGLEWVSSIGSSGGTTYYADSVKGRFTISRDNSKNTLYLQMNSLRAEDTAVYYCAGSQWLYGMDVWGQGTTVTVSS
VL: DIQMTQSPSSLSASVGDRVTITCRSSQRIMTYLNWYQQKPGKAPKLLIFVASHSQSGVPSRFRGSGSETDFTLTISGLQPEDSATYYCQQSFWTPLTFGGGTKVEIK
notes: human IgG1 wt constant region; variable region shared with BaxB01 (PDB 6FOE); full-length light chain identical to that of imalumab; Human IgG1; also called imalumab; Bax69; source: ExpiCHO, transient expression, purified (Protein A MabSelect PrismA, HiTrap SP HP)
For the molecule B1, the binding result in assay [1] and in assay [2] was “binds” in each case.

B2: ON203 (antibody, V domains shown)
VH: EVQLQESGGGLVQPGGSLRLSCAASGFTFSIYSMNWVRQAPGKGLEWVSSIGSSGGTTYYADSVKGRFTISRDNSKNTLYLQMNSLRAEDTAVYYCAGSQYLYGMDVWGQGTTVTVSS
VL: DIQMTQSPSSLSASVGDRVTITCRSSQRIMTYLNWYQQKPGKAPKLLIYVGSHSQSGVPSRFRGSGSETDFTLTISGLQPEDSATYYCQQSFFTPLTFGGGTKVEIK
notes: heavy-chain variable domain of C0090: the VH of m1 with point mutations; heavy-chain constant region of an IgG1/IgG2 hybrid isotype with two point mutations (S239D/I332E) in the CH2 domain; light chain of C0090: as the light chain of m1 with point mutations in VL; Variable domains of C0090 on an IgG1/IgG2 hybrid constant region; also called second-generation anti-oxMIF mAb; lead candidate; …
Turning to B2, the binding result in assay [1] was “binds”.

B3: ON103 (antibody, V domains shown)
VH: EVQLQESGGGLVQPGGSLRLSCAASGFTFSIYSMNWVRQAPGKGLEWVSSIGSSGGTTYYADSVKGRFTISRDNSKNTLYLQMNSLRAEDTAVYYCAGSQYLYGMDVWGQGTTVTVSS
VL: DIQMTQSPSSLSASVGDRVTITCRSSQRILTYLNWYQQKPGKAPKLLIYVGSHSQSGVPSRFRGSGSETDFTLTISGLQSEDSATYYCQQSFFTPLTFGGGTKVEIK
notes: heavy-chain variable domain of C0083: the VH of m1 with point mutations; heavy-chain constant region of an IgG1/IgG2 hybrid isotype with two point mutations (S239D/I332E) in the CH2 domain; light chain of C0083: as the light chain of m1 with point mutations in VL; Variable domains of C0083 on an IgG1/IgG2 hybrid constant region; also called second-generation anti-oxMIF mAb; lead candidate; …
B3: the binding result in assay [1] is on record as “binds”.
